From publication PMC10847457 (Cell Discovery, 2024)

B1: PW5-570 (antibody, V domains shown)
VH: QMQLVQSGPEVRKPGTSVKVSCRASVFSFDTSAVQWVRQARGQPLEWIGWIVFGSSNTDYAQKFRDRVTITGDMSTGTAYMELSSLRSEDTAVYYCAAPHCNRTNCHDGFDIWGQGTVVTVSS
VL: EIVLTQSPGTLSLSPGERATLSCRASQSVRSGYLGWYQQKPGQAPRLLIYGAYNRATGIPDRFRGSGSGTDFTLTISRLEPEDFVVYYCQQYDRSPWTFGQGTKVEIK
notes: also called PW5-570 IgG; PW5-570 immunoglobulin G
B2: PW5-5 (antibody, V domains shown)
VH: QVQLVQSGAEVKKPGASVKVSCKTSGYTFTDHYMYWVRQAPGQGLEWMGVINPDAGSVTYAQKFQGRVTMTSDTSTSTVYMELSSLRSEDTAVYYCARDLFFIPAANSFDYWGQGTLVTVSS
VL: EIVLTQSPATLSLSPGERATLSCRASQSVSSYLAWYQQKPGQAPRLLIYDATNRATGIPARFSGSGSGTDFTLTISSLEPEDFAVYYCQHRSNWPRMFTFGQGTKLEIK
notes: also called PW5-5 IgG; IgG PW5-5
B3: PW5-535 (antibody, V domains shown)
VH: EVRLVESGGGLVQPGGSLRLSCAASGFTFRNYDIHWVRQTTGKGLEWVSAVGTSGDTYYLDSVKGRFTISREDAKKSVYLQMNSLRAGDTAMYYCVRGDASPDNIYYYMDVWGTGTRVIVSS
VL: DIQVTQSPSPLSASVGDRVTITCRASQTIGKYLNWYHQIPGKAPKLLISAASTLHSGVPSRFSGRGSGTDFTLTISSLQPEDFGTYYCQQSYSSPPWTFGQGTKVEIK

What follows are binders tested against T1, SARS-CoV-2 RBD (aa 319-541) (SARS-CoV-2, UniProt P0DTC2) (assay: ELISA). Settings: both partners purified.
T1 construct: source: Expi293 cells, transient transfection (pCMV3), purified

Binder | binding result
B1 | binds
B2 | binds
B3 | binds

These binders were tested against T2, SARS-CoV-2 NTD (aa 1-305) (SARS-CoV-2, UniProt P0DTC2) (assay: ELISA). Settings: both partners purified.
T2 construct: source: Expi293 cells, transient transfection (pCMV3), purified

Binder | binding result
B1 | no binding
B2 | no binding
B3 | no binding
